Laboratory results taken from the supplement of paper PMC12042874.
± gives the uncertainty stated by the source.

assay: amyloid nucleation score (Sup35N fusion, yeast selection) (log enrichment); library NNK1; higher = more nucleation; inactive = no reads after selection
Method in brief: (§1)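 Sup35N fusions to peptides of 20 random codons were expressed in psi-negative yeast, induced 24 hours with 100 μM copper sulfate, and grown 7 days at 30°C on medium lacking adenine and uracil. Input and output plasmid inserts were sequenced by Illumina. The nucleation score is the DiMSum log enrichment of output over input reads, centred on the mode score of non-aggregating sequences. Sequences with under 100 input reads were excluded.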

ADDVCSCQGFLYRDVFCATD and ADIPCQNCVSYVRYFGLNVI are within error of each other in amyloid nucleation score: 0.531 ± 0.93 for the first, -0.094 ± 0.48 for the second.

Going from ADLSISRWCLCGRNALGLFF to ADSFSI, the amyloid nucleation score falls from 5.12 ± 0.07 to -0.118 ± 0.44.

ADTCGCGWDSRRKCFMGGYS and AEHYPGIVVCLSLCDS are within error of each other in amyloid nucleation score: -0.187 ± 0.52 for the first, -1.77 ± 2.4 for the second.

AELSITASTNMESNLVNSIR and AESLIKHLK are within error of each other in amyloid nucleation score: -1.69 ± 2.7 for the first, 0.334 ± 0.43 for the second.

Compared with AFAFEYCRTSRIFCQGMEWQ, AFCSAAVQAEICEWCNSIYA is lower in amyloid nucleation score: 1.05 ± 0.6 for the first, -0.431 ± 0.64 for the second.

AFDGVS and AFDLTEVQFLRVVKS are within error of each other in amyloid nucleation score: -0.096 ± 1.7 for the first, -0.259 ± 0.44 for the second.

AFFSAKIKAPFNDVFGYGFV and AFFYYIEQDSYTVRSIMI are within error of each other in amyloid nucleation score: 0.289 ± 0.33 for the first, -0.294 ± 0.42 for the second.

Going from AFLIIMSGSGNCICLRSLVS to AFMDKLMSPGEVIEVAL, the amyloid nucleation score rises from -0.385 ± 0.3 to 1.29 ± 0.84.

First: AFMYYTGATIMHLQSANGGL
Second: AFPPYRIFADRLYMSSPGPA
The amyloid nucleation score of the first is higher: 2.27 ± 0.17 for the first, 0.961 ± 0.69 for the second.

First: AFRFHQHMACREL
Second: AFSANF
The amyloid nucleation score of the first is higher: 4.36 ± 0.055 for the first, 0.779 ± 0.42 for the second.

Going from AFVIFVYNKSIAQIWHFRGY to AFVTSRPYWGNSVVEAHLVG, the amyloid nucleation score rises from -0.797 ± 0.37 to 1.69 ± 0.19.

AGCDNMIYMSTWVKWESN and AGFSTHSSGCVGECVGQRT are within error of each other in amyloid nucleation score: 0.197 ± 0.31 for the first, 0.32 ± 0.69 for the second.

AGHSCQSTMTGCYTFHSYVW and AGKCIVQYKGLKNVR are within error of each other in amyloid nucleation score: -0.102 ± 0.49 for the first, 0.91 ± 0.75 for the second.

AGLRVYKIKSFRLEDSVNAG and AGLWYNWRECSFHRVVVGYP are within error of each other in amyloid nucleation score: 1.49 ± 0.71 for the first, 0.737 ± 0.55 for the second.

AGMCSIC and AGRMEGYESEGPPGHA are within error of each other in amyloid nucleation score: 0.155 ± 0.36 for the first, 0.187 ± 0.39 for the second.

AGRRKSRSAVQREP and AGSDGQGDGEQWRNHLRPIA are within error of each other in amyloid nucleation score: 0.528 ± 0.88 for the first, -0.294 ± 0.64 for the second.

AGSEVFEK and AGWYASW are within error of each other in amyloid nucleation score: 0.073 ± 0.32 for the first, 0.142 ± 0.74 for the second.

AGYAYSGIVAGAYWIFCNYE and AHTSYYTMSTSRTADGVKIS are within error of each other in amyloid nucleation score: 1.12 ± 0.85 for the first, 0.028 ± 0.31 for the second.

AHYRV and AIEPHDGFWGVWSTLGVILI are within error of each other in amyloid nucleation score: 0.014 ± 0.48 for the first, 1.32 ± 0.93 for the second.

AIFFGGIGKVCVKLVLCVRL and AIFKSITDPVLWSGLF are within error of each other in amyloid nucleation score: 0.248 ± 0.27 for the first, 0.562 ± 0.97 for the second.

AIFNTGNMWDTLRRHSGVHV and AINLRLV are within error of each other in amyloid nucleation score: -0.059 ± 1.2 for the first, 0.23 ± 0.36 for the second.

AIPGGVTGTGWSSM and AISDFMGHS are within error of each other in amyloid nucleation score: -0.221 ± 0.51 for the first, -0.825 ± 1.1 for the second.

First: AIYVNGCVCCISYLVPILMS
Second: AKMRMNNSFFFTVNWVLMNW
The amyloid nucleation score of the first is higher: 3.61 ± 0.075 for the first, -0.461 ± 0.4 for the second.

AKSELHYSRFYFTLGVMKSL and AKVRKNYTFLHLSPLGRGFD are within error of each other in amyloid nucleation score: -0.138 ± 0.48 for the first, 0.321 ± 0.48 for the second.

AKYPMQRLLRFLFLVVR and ALHVGLNSFPGMSRYV are within error of each other in amyloid nucleation score: 0.374 ± 0.48 for the first, 0.212 ± 0.89 for the second.

Compared with ALSDFGDKLSPPEDLRLEHW, ALSPRVSSLGNFT is lower in amyloid nucleation score: 1.07 ± 0.62 for the first, -0.691 ± 0.53 for the second.

Compared with ALVTVIHAPVFYLWNAFYLC, AMLLLTCGL is lower in amyloid nucleation score: 7.396 ± 0.048 for the first, 0.481 ± 0.74 for the second.

AMPYCGK and AMWYTRRMQVENVKTVLSLM are within error of each other in amyloid nucleation score: 0.575 ± 0.36 for the first, -0.027 ± 0.34 for the second.

AMYFTWFVHFGAYRVRSIEK and ANDFYVMYAEWKDCRNRVLF are within error of each other in amyloid nucleation score: 1.48 ± 0.48 for the first, 0.655 ± 0.66 for the second.

ANFAIFWSFYRGWCSFKIQS and ANFFICFLHLVCTKIQSSLL are within error of each other in amyloid nucleation score: 0.871 ± 0.5 for the first, 1.77 ± 0.52 for the second.

ANQRSAGYPSGYKCTYYNRS and APLYLHMWSCYSLMLSPSMG are within error of each other in amyloid nucleation score: 0.838 ± 0.41 for the first, -1.5 ± 2.4 for the second.

APRCKSIWS and APSSKF are within error of each other in amyloid nucleation score: -0.706 ± 0.59 for the first, 0.062 ± 1.1 for the second.

AQYELLMQRNWYVGKDLVRG and ARFVDYPCALLWARTSR are within error of each other in amyloid nucleation score: -0.192 ± 0.42 for the first, -0.375 ± 0.56 for the second.

ARGHGFQPVGPLGSVILMAR and ARHRDALFRCEDMFGKVQYS are within error of each other in amyloid nucleation score: -0.302 ± 0.68 for the first, -0.296 ± 0.56 for the second.

ARRRF and ARTGCHKVYLAAACSYGRFS are within error of each other in amyloid nucleation score: -0.345 ± 1.7 for the first, 0.188 ± 0.34 for the second.

ARTRVLMKQVQGFKSFTILH and ARVNVWAVGWSENNSNLKI are within error of each other in amyloid nucleation score: 0.192 ± 0.52 for the first, 0.916 ± 0.24 for the second.

ARYGVSGHAYDTNPRRYFGQ and ASEVCKY are within error of each other in amyloid nucleation score: -0.903 ± 2.4 for the first, 0.375 ± 0.79 for the second.

ASKFYHFRTQEYTS and ASKKGPWFYSAVSYGLA are within error of each other in amyloid nucleation score: 0.212 ± 0.28 for the first, -0.128 ± 0.34 for the second.

Going from ASLTDVYIDELRLSNEGTWN to ASLVDVGSP, the amyloid nucleation score falls from 1.94 ± 0.65 to 0.215 ± 0.32.

ASRRSSHHSGRMHRAQLSGF and ASSVSMFFYIWFLDAHVGYL are within error of each other in amyloid nucleation score: -1.5 ± 1.8 for the first, 0.364 ± 0.33 for the second.

First: ASVAHLCGQLTVDTGFRITG
Second: ASYGIIVSSLFFNGRGCHWS
The amyloid nucleation score of the first is lower: 0.138 ± 0.33 for the first, 3.81 ± 0.096 for the second.

With ATCPLYEVLSCYARVKFANT the amyloid nucleation score was -0.357 ± 0.33.

In the case of AKSVYILVR, the amyloid nucleation score is reported as “inactive”.

assay: amyloid nucleation score (Sup35N fusion, yeast selection) (log enrichment); library NNK3; higher = more nucleation; inactive = no reads after selection
Method in brief: as §1

With NVFSS the amyloid nucleation score was “inactive”.
